Drawing on article PMC4622665 (mAbs, 2014), this text covers IC50 for three molecules.

Changes are numbered by the printed parent chain.

As a reminder, the IC50 is the concentration that inhibits the measured activity by half. Read a low IC50 as greater potency.

The target in the assay is human formyl peptide receptor 1 (human, UniProt P21462). Description: FMAT competition binding on cells.
Chain of human formyl peptide receptor 1 (P21462 whole entry): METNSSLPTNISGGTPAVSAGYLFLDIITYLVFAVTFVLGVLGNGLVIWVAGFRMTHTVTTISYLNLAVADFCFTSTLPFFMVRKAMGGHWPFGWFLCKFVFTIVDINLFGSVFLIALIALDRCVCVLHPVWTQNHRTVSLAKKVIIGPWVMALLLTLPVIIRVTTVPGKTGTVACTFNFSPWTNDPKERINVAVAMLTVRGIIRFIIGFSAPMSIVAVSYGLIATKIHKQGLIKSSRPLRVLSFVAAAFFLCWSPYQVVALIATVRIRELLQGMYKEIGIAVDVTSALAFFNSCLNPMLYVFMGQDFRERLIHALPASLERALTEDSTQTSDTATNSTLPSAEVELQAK

B1: Fpro0084 IgG (antibody, V domains shown)
VH: EVQLVESGGGLVKPGGSLRLSCAASGFTFSNAWMNWVRQAPGKGLEWVGRIKSKTDGGAADYAAPVKGRFTISRDDSKNTLYLQMNSLKTEDTAVYYCTTDQLGYDFWSGYYTDTLYYYFGMDVWGPGTTVTVSS
VL: DIVMTQSPLSLPVTPGEPASISCRSSQQLQAYDGHNYLDWYLQKPGQSPQVLIYLGSNRASGVPDRFSGSGSGTDFTLKISRVEAEDVGVYYCMQALQTPLTFGGGTKVEIK
For B1, the IC50 stood at 13 nM. This counts as double-digit nanomolar.

B2: Fpro0067 IgG (antibody, V domains shown)
VH: B1 VH
VL: B1 VL with Q28P, Q30L, Y32M, L55Q, G56S, S57K, N58W
On to B2, for which the IC50 was found to be 14 nM. This IC50 and that of the molecule before are within 1.5-fold of each other.

B3: Hy38-1 IgG1 (antibody, V domains shown)
VH: B1 VH
VL: not shown
In turn, B3 displayed an IC50 of 32 nM.
